Reference: patent US20120114665A1 (Regeneron, published 2012)
Positions count from the first letter of the chain named. Several values for one entry are separate records, joined by “and”; a condition that tells them apart may be missing. Identical values can stand only once. Like-named read-outs stand apart in the source and are kept apart here.

T1: human RANKL (receptor activator of NF-κB ligand) (human, UniProt O14788 140-317, limits assumed)
T1 sequence: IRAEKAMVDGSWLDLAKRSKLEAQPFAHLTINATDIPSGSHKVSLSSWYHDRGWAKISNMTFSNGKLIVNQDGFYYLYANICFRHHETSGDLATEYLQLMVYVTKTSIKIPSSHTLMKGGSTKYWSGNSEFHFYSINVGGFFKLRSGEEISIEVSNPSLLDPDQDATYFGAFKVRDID

T2: human trRANKL-his (R&D) (human, UniProt O14788 136-317, limits assumed)
T2 construct: Bought (R&D); also called captured RANKL; not shown: his tag
T2 sequence: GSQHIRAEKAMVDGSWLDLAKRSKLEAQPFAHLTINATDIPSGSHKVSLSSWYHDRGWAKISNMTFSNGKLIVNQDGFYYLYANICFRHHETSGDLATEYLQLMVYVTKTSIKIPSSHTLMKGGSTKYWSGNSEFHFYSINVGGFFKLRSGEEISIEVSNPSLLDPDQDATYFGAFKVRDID

T3: hRANKL captured on an anti-penta-his antibody surface (human, UniProt O14788 136-317)
T3 construct: also called captured hRANKL surface; not shown: his tag implied by capture on anti-penta-his
T3 sequence: T2 sequence

T4: penta-his-tagged hRANKL (human)
T4 construct: also called his-hRANKL; not shown: penta-his tag
T4 chain: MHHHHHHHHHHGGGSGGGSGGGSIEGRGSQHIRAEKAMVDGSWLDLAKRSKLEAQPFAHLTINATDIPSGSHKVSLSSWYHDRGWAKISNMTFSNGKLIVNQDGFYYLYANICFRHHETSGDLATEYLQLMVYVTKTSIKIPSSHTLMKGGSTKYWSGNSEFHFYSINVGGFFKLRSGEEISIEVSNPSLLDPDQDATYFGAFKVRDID

T5: penta-his-tagged monkey (Macaca fascicularis) RANKL (Macaca fascicularis, UniProt O14788 125-317 (human entry))
T5 construct: also called his-mfRANKL; mfRANKL; not shown: penta-his tag
T5 chain: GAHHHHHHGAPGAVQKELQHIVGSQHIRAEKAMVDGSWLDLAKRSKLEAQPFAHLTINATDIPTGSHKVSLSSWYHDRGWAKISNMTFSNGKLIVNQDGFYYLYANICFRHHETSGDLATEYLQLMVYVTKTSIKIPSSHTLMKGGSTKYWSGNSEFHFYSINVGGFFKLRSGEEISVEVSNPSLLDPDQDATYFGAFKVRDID

B1: H4H008G (antibody, V domains shown)
VH: QVQLVESGGGVVQPGRSLRLSCAASGFTFSGFGMHWVRQAPGKGLEWVAVISYDGRNKYYADSVKGRFTISRDNSKNTLYLQMNSLRAEDTAVYYCAKSLSGTYWGYGMDVWGQGTTVTVS
VL: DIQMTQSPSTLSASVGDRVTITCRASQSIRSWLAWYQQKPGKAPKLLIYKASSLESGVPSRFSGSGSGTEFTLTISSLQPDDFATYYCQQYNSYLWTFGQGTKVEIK
notes: Purified antibody from clone 2G10
B2: H4H009P (antibody, V domains shown)
VH: B1 VH with F32Y, M34I, G42D, R56T, A61G, S75T, A88T
VL: DIQMTQSPSTLSASVGDRVTITCRASQNIGNWLAWYQQKPGKAPKLLIYKASSLQNGVPSRFSGSGSGTEFTLTISSLQPDDFATYYCQRYNSYSWTFGQGTKVEIK
notes: Purified antibody from clone 2H10
B3: H4H010P2 (antibody, V domains shown)
VH: QVQLVQSGGGVVQPGRSLRLSCAASGFTFSGYGMHWVRQAPGKGLDWVTVISYDGSNKHYADSVKGRFTISRDNSKNTLYLQMSSLGPEDTAVYYCAKSLSGTYWGYGMDVWGQGTTVTVSS
VL: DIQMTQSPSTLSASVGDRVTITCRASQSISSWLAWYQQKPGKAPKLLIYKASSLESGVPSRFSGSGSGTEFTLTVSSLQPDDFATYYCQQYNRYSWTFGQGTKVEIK
B4: H4H008P2 (antibody, V domains shown)
VH: EVQLLESGGGLLQPGGSLRLSCAASGFTFSGFGMSWVRQAPGRGLEWVSVISYDGRNKYYADSVKGRFTSSRDNSKNTLYLQMNSLRAEDTAVYYCAKSLSGTYWGYGMDVWGRGTLVTVSS
VL: EIVLTQSPATLSLSPGERATLSCRASQSIRSWLAWYQQKPGQAPRLLIYKASNRATGIPARFSGSGSGTDFTLTISSLEPEDFGVYYCQQYNSYLWTFGGGTKVEIKR

Experiments:
[1] = target: T1, human RANKL (receptor activator of …); test: cell-based or functional assay
[2] = target: T1, human RANKL (receptor activator of …); test: cell-based or functional assay; remark: listed apart in the source
[3] = target: T1, human RANKL (receptor activator of …); test: SPR (BIACORE), purified antibody, 25°C
[4] = target: T1, human RANKL (receptor activator of …); test: SPR (BIACORE), purified antibody, 37°C
[5] = target: T2, human trRANKL-his (R&D); test: SPR, trRANKL-his captured on anti-his, antibody 12.5-50 nM injected, 25°C
Description: (§1) Briefly, human trRANKL-his (R&D) was first captured over an anti-his surface. […] The antigen and antibody binding and dissociation were monitored for 1 hr. KD is expressed in pM, T_{1/2} in hrs.

[6] = target: T2, human trRANKL-his (R&D); test: SPR, trRANKL-his captured on anti-his, antibody 12.5-50 nM injected, 37°C
Description: as §1

[7] = target: T3, hRANKL captured on an anti-penta-his …; test: SPR (BIACORE), hRANKL captured on anti-penta-his, antibody 25-100 nM injected, 25°C
[8] = target: T3, hRANKL captured on an anti-penta-his …; test: SPR (BIACORE), hRANKL captured on anti-penta-his, antibody 25-100 nM injected, 37°C
[9] = target: T4, penta-his-tagged hRANKL; test: competition ELISA: 150 pM his-hRANKL pre-mixed with antibody, free RANKL detected on hRANK-hFc plate
Protocol: (§2) Briefly, hRANK-hFc protein was coated on a 96-well plate in PBS buffer overnight at 4° C. at 2 μg/ml, and nonspecific binding was blocked with BSA, to form a hRANK-hFc surface.

[10] = target: T4, penta-his-tagged hRANKL; test: as above
Protocol: as §2

[11] = target: T5, penta-his-tagged monkey (Macaca …); test: competition ELISA: 150 pM his-mfRANKL pre-mixed with antibody, free RANKL detected on hRANK-hFc plate
Protocol: as §2

[12] = target: T5, penta-his-tagged monkey (Macaca …); test: as above
Protocol: as §2

Binder | IC50, hRANKL-inducible luciferase activity in HK293/RANK/NFκB-luc-eGFP cells [1] | IC50, hRANKL-inducible luciferase activity in HK293/RANK/NFκB-luc-eGFP cells [2] | Kd [3] | Kd [4] | Kd [5] | T1/2 [5] | Kd [6] | T1/2 [6] | Kd [7] | T1/2 [7] | Kd [8] | T1/2 [8] | IC50 [9] | IC50 [10] | IC50 [11] | IC50 [12]
B1 | 0.02 nM | 0.0108 nM | 0.007 nM | 0.163 nM | 0.0119 nM | 6 h | 0.0395 nM | 1 h | 0.0119 nM | 6 h | 0.0399 nM | 1 h | 0.02 nM | 0.09 nM | 0.16 nM | 0.29 nM
B2 | 0.045 nM and 0.084 nM | – | 0.173 nM | 0.0248 nM | – | – | – | – | 0.376 nM | 1 h | 0.881 nM | 0.13 h | 0.06 nM | – | 0.345 nM | –
B3 | – | 0.0187 nM | – | – | 0.134 nM | 1 h | 0.848 nM | 0.15 h | – | – | – | – | – | 0.0519 nM | – | 0.353 nM
B4 | – | 0.015 nM | – | – | 0.0254 nM | 2 h | 0.245 nM | 0.2 h | – | – | – | – | – | 0.0569 nM | – | 1.8 nM
